Bridge positions count the residues as written; N and C are the ends. Square brackets hold non-standard residues; d marks the D form. Ends that are not written are not given here. Pro(cis-4-CF3) = O=C(O)[C@@H]1C[C@H](C(F)(F)F)CN1; Oic = O=C(O)[C@@H]1C[C@@H]2CCCC[C@@H]2N1; tBuAla = CC(C)(C)C[C@H](N)C(=O)O; Pen = CC(C)(S)[C@H](N)C(=O)O; NMeC = CN[C@@H](CS)C(=O)O; NMeA = CN[C@@H](C)C(=O)O; Sar = CNCC(=O)O
Key:
[1] = target: Recombinant human MASP2 enzyme (fragment corresponding to amino acids 297-686, C-terminal His Tag) (human, UniProt O00187 297-686); assay: cell-based or functional assay
Recombinant human MASP2 enzyme (fragment corresponding to amino acids 297-686, C-terminal His Tag), sequence (O00187 other isoform, or with tags, fused parts or gaps limits assumed): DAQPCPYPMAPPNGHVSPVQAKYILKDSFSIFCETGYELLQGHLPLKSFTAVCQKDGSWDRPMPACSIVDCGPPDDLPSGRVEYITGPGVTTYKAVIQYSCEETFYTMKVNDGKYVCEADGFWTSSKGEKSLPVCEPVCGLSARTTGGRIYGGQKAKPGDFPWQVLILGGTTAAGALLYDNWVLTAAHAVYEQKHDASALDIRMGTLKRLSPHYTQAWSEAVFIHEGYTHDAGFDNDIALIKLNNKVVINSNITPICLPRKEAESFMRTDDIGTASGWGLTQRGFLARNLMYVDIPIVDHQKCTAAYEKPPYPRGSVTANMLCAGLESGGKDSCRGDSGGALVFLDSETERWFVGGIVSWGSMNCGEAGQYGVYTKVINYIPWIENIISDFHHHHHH

[2] = target: T1, Recombinant human MASP1 enzyme (fragment corresponding to amino acids 297-699, C-terminal His Tag) (human, UniProt P48740 297-699); assay: cell-based or functional assay
T1 sequence: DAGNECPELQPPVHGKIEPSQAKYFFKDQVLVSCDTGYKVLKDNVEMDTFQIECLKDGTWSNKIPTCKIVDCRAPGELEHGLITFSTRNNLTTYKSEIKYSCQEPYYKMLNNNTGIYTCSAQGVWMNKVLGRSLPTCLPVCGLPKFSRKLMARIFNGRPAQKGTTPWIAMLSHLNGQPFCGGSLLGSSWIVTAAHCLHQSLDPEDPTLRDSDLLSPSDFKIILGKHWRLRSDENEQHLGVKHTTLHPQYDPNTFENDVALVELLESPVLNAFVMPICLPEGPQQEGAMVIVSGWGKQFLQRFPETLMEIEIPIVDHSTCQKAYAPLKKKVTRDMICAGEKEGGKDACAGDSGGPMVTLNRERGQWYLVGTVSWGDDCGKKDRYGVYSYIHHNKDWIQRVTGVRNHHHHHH

Row | Binder | human MASP2 IC50 [1] [nM] | human MASP1 IC50 [2] [nM]
1 | [Sar]ICSRS[tBuAla]PPI[Pen]IPP-NH2 (disulfide 3-11; N-terminus assumed; SMILES CC[C@H](C)[C@H](NC(=O)CNC)C(=O)N[C@H]1CSSC(C)(C)[C@@H](C(=O)N[C@H](C(=O)N2CCC[C@H]2C(=O)N2CCC[C@H]2C(N)=O)[C@@H](C)CC)NC(=O)[C@H]([C@@H](C)CC)NC(=O)[C@@H]2CCCN2C(=O)[C@@H]2CCCN2C(=O)[C@H](CC(C)(C)C)NC(=O)[C@H](CO)NC(=O)[C@H](CCCNC(=N)N)NC(=O)[C@H](CO)NC1=O) [((N-Me)G)-IC+SRS-((tBu)A)-PPI-(Pen)+IPP-NH2] | 63 | 3.8
2 | [NMeA]ICSRSLP[Oic]I[Pen]IPE-OH (disulfide 3-11; N-terminus assumed; SMILES CC[C@H](C)[C@H](NC(=O)[C@H](C)NC)C(=O)N[C@H]1CSSC(C)(C)[C@@H](C(=O)N[C@H](C(=O)N2CCC[C@H]2C(=O)N[C@@H](CCC(=O)O)C(=O)O)[C@@H](C)CC)NC(=O)[C@H]([C@@H](C)CC)NC(=O)[C@@H]2C[C@@H]3CCCC[C@@H]3N2C(=O)[C@@H]2CCCN2C(=O)[C@H](CC(C)C)NC(=O)[C@H](CO)NC(=O)[C@H](CCCNC(=N)N)NC(=O)[C@H](CO)NC1=O) [((N-Me)A)-IC+SRSLP-(Oic)-I-(Pen)+IPE-OH] | 170 | 3.9
3 | AICSRS[tBuAla]P[Pro(cis-4-CF3)]ICIPD-NH2 (disulfide 3-11; N-terminus assumed; SMILES CC[C@H](C)[C@H](NC(=O)[C@H](C)N)C(=O)N[C@H]1CSSC[C@@H](C(=O)N[C@H](C(=O)N2CCC[C@H]2C(=O)N[C@@H](CC(=O)O)C(N)=O)[C@@H](C)CC)NC(=O)[C@H]([C@@H](C)CC)NC(=O)[C@@H]2C[C@H](C(F)(F)F)CN2C(=O)[C@@H]2CCCN2C(=O)[C@H](CC(C)(C)C)NC(=O)[C@H](CO)NC(=O)[C@H](CCCNC(=N)N)NC(=O)[C@H](CO)NC1=O) [AIC+SRS-((tBu)A)-P-((4-CF3)P)-IC+IPD-NH2] | 930 | 3.9
4 | [dA]ICSRSLP[Oic]I[Pen]I-NH2 (disulfide 3-11; N-terminus assumed; SMILES CC[C@H](C)[C@H](NC(=O)[C@H]1NC(=O)[C@H]([C@@H](C)CC)NC(=O)[C@@H]2C[C@@H]3CCCC[C@@H]3N2C(=O)[C@@H]2CCCN2C(=O)[C@H](CC(C)C)NC(=O)[C@H](CO)NC(=O)[C@H](CCCNC(=N)N)NC(=O)[C@H](CO)NC(=O)[C@@H](NC(=O)[C@@H](NC(=O)[C@@H](C)N)[C@@H](C)CC)CSSC1(C)C)C(N)=O) [aIC+SRSLP-(Oic)-I-(Pen)+I-NH2] | 100 | 3.9
5 | [Sar]ICSRS[tBuAla]PPI[Pen]IP-NH2 (disulfide 3-11; N-terminus assumed; SMILES CC[C@H](C)[C@H](NC(=O)CNC)C(=O)N[C@H]1CSSC(C)(C)[C@@H](C(=O)N[C@H](C(=O)N2CCC[C@H]2C(N)=O)[C@@H](C)CC)NC(=O)[C@H]([C@@H](C)CC)NC(=O)[C@@H]2CCCN2C(=O)[C@@H]2CCCN2C(=O)[C@H](CC(C)(C)C)NC(=O)[C@H](CO)NC(=O)[C@H](CCCNC(=N)N)NC(=O)[C@H](CO)NC1=O) [((N-Me)G)-IC+SRS-((tBu)A)-PPI-(Pen)+IP-NH2] | 44 | 3.8
6 | AICSRSLP[Oic]I[NMeC]I-NH2 (disulfide 3-11; N-terminus assumed; SMILES CC[C@H](C)[C@H](NC(=O)[C@@H]1CSSC[C@H](NC(=O)[C@@H](NC(=O)[C@H](C)N)[C@@H](C)CC)C(=O)N[C@@H](CO)C(=O)N[C@@H](CCCNC(=N)N)C(=O)N[C@@H](CO)C(=O)N[C@@H](CC(C)C)C(=O)N2CCC[C@H]2C(=O)N2[C@@H](C[C@@H]3CCCC[C@@H]32)C(=O)N[C@@H]([C@@H](C)CC)C(=O)N1C)C(N)=O) [AIC+SRSLP-(Oic)-I-((N-Me)C)+I-NH2] | 170 | 3.9
